Here are results for two molecules from patent US9017951B2, “Anti-FcRH5 antibodies and immunoconjugates and methods of use” (Genentech, Inc., priority 2009, dated 2015).

The test system of one assay is cynomolgus FcRH5. The assay can be described thus: Cyno X-reactivity (FACS) on stable transfected cells. The assay is classed as binding. As to conditions: SVT2 cells stably expressing cynoFcRH5; 1.0, 0.1 or 0.01 ug Ab per million cells. As for the experimental part:
For additional FACS analysis of FcRH5 antibodies, 1.0 μg, 0.1 μg or 0.01 μg of antibody was titrated per million cells of BJAB cells stably expressing huFcRH5 and SVT2 cells stably expressing cynoFcRH5. Briefly, approximately 10^6 cells in 100 μl were incubated with varying amounts (1.0 ug, 01. ug or 0.01 ug) of murine Ab (‘mu1H4, mu4D10, mu6H1, mu7D11, mu9E2, mu10A8, mu140F5, or mu13G9) per million cells of BJAB cells stably expressing huFcRH5 and SVT2 cells stably expressing cynoFcRH5. Incubation with 1.0 ug/10^6 cells of the appropriate Mu IgG isotype control was used as a negative control. PE conjugated Rat anti-MuIgG1 or Rat anti-MuIgG2a+b was used as the secondary detection antibody.

For the next assay, the target named is T1, human FcRH5 (Homo sapiens, UniProt Q96RD9).
T1 construct: expressed in transfected cells; host or cells: OPM2 multiple myeloma line per text
T1 sequence (Q96RD9 16-977 Y267H/G418D/V466I/L733P/S890P): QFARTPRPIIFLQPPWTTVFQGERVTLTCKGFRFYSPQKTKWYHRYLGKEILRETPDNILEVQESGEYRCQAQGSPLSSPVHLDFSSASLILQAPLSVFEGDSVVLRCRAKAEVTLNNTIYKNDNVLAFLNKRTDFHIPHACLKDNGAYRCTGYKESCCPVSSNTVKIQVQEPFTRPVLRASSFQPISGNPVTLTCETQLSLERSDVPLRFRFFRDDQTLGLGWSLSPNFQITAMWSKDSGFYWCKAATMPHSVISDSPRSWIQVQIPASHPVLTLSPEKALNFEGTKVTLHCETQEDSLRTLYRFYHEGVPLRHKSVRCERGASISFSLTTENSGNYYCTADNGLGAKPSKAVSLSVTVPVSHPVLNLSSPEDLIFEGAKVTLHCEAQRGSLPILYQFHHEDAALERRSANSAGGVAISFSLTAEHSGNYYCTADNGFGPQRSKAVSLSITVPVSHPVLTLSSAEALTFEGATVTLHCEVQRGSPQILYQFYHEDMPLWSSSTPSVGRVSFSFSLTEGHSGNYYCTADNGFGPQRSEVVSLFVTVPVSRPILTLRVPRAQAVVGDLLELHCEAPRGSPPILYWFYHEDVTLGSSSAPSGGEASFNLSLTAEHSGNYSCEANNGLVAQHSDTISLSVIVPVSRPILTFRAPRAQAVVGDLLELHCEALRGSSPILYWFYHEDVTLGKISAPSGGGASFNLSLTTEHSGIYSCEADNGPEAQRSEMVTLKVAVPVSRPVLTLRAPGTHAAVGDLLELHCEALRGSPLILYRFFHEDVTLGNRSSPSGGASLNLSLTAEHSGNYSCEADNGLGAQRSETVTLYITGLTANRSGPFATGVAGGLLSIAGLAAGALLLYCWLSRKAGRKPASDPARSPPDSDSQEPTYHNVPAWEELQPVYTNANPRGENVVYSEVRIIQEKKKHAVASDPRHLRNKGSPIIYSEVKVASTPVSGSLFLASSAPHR
The assay can be described thus: Affinity determination (Scatchard analysis), cells expressing human FcRH5. The class given is binding. As to conditions: FACS and Scatchard analysis. As for the experimental part: To further determine binding of the FcRH5 murine antibodies and IgG clones, binding of iodinated IgG variants to OPM2 cells expressing human FcRH5 and SVT2 cells expressing cynomologous FcRH5, Scatchard analysis was performed (Table 9A).
After a four hour incubation at 4° C., cells were washed and cell pellet counts were read by a gamma counter (1470 WIZARD Automatic Gamma Counter; Perkin Elmer, Walthem, Mass.). All points were done in triplicate and counted for 10 minutes. The average CPM was used for Kd calculation using the New Ligand (Genentech, South San Francisco, Calif.) program.

cynomolgus FcRH5, sequence (as listed by the source): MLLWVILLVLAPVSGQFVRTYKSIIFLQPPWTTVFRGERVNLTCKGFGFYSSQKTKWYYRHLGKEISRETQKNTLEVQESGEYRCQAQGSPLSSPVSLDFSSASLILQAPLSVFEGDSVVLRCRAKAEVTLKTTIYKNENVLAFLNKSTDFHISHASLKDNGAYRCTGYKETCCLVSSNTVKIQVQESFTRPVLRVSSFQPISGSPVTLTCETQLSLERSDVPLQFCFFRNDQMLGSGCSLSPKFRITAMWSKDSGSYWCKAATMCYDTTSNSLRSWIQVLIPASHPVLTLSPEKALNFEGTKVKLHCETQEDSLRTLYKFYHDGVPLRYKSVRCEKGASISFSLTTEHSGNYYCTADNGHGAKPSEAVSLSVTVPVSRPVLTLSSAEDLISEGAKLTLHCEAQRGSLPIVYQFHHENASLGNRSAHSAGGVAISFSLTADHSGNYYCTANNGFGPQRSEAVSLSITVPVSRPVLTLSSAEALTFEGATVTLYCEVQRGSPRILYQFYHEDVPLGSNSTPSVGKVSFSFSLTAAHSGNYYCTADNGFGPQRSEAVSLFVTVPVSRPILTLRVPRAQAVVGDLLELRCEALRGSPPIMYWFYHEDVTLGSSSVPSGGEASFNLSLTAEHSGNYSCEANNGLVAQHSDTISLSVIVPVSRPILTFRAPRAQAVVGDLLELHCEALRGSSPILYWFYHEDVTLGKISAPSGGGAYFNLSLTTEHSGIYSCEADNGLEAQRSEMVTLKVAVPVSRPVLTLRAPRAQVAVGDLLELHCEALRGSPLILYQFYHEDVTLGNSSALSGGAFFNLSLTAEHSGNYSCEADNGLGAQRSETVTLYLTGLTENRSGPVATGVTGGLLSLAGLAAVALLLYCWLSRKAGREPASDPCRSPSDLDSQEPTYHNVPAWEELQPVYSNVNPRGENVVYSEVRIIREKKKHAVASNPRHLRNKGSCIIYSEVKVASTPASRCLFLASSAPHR

B1: 13G9: murine monoclonal antibody binding human FcRH5; variable chains SEQ ID NO: 18 and 20 (antibody, listed as Mus sp., V domains shown)
VL: DIVMTQSQKIMSTSVGDRVNVTCKASQNVGSNVAWYHQKPGQSPKALIYSASYRYSGVPDRFTGSGSGTDFTLTISNVQSEDLAEYFCQQYKTWTFGGGTKLEIKR
VH: EVQLVQSGPELKKPGETVKISCKASGYTFTNYGMNWVKQAPGKGLKWMGWVNTYTGEPTYTDDFKGRFAFSVETSASTVFLQINNLKNEDTATYFCARRSIPYYYAMDYWGQGTSLT
As to B1, the “Cross reactivity with cynomolgus FcRH5 by FACS analysis” value in the assay with cynomolgus FcRH5 is “cross react with cynomolgus FcRH5”.

B2: hu13G9.1a: humanized 13G9 version 1; VL SEQ ID NO: 19, VH SEQ ID NO: 21 (antibody, V domains shown)
VH: EVQLVQSGGGLVQPGGSLRLSCAASGYTFTNYGMNWVRQAPGKGLEWVGWVNTYTGEPTYTDDFKGRFTFSVDTSKSTVYLQMNSLRAEDTAVYYCARRSIPYYYAMDYWGQGTLVTVS
VL: DIQMTQSPSSLSASVGDRVTITCKASQNVGSNVAWYQQKPGKAPKALIYSASYRYSGVPSRFSGSGSGTDFTLTISSLQPEDFATYYCQQYKTWTFGQGTKVEIKR
With B2, the “Binding to cells expressing FcRH5 compared with the chimera” value with human FcRH5 is reported as “essentially equivalent to the chimera”.
